Data set [1] deals with T1, rStat1a (Danio rerio (zebrafish), UniProt O93598 1-749).
T1 sequence: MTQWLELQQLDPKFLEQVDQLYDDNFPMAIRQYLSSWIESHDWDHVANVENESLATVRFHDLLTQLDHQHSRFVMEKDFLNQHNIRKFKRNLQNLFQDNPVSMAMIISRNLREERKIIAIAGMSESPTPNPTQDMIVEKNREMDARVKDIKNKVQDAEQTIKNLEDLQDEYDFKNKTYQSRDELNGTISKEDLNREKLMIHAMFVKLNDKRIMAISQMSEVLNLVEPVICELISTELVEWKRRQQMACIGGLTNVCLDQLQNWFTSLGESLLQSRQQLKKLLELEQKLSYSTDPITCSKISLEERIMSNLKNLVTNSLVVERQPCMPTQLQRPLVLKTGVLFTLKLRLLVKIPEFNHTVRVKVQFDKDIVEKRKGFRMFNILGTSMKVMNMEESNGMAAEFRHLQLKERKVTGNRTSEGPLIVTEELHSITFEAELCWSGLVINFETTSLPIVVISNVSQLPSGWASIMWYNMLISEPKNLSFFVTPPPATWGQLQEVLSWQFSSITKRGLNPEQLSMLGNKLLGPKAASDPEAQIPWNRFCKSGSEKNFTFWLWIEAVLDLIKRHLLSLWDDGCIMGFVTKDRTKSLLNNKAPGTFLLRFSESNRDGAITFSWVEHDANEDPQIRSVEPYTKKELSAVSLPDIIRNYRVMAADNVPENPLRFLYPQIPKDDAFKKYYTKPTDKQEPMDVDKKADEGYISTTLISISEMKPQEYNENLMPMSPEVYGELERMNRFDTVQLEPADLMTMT
Description: competition; unlabeled competitor vs biotin P2 probe; little change; Beyotime GS009 EMSA/Gel-Shift binding buffer with poly(dI-dC), 25 C, 25 min preincubation then 30 min with 0.5 uM biotin probe (competitor stated as 0.5 uM), native 6% PAGE; salt and pH not stated. The conditions noted are these: protein: recombinant; tags: His (pET-28a; Ni-NTA, anti-His); chain copies: 2; blunt. A general note: In EMSA bound probe runs differently from free probe, usually more slowly.

The target in data set [2] is T2, rStat1b (Danio rerio (zebrafish), UniProt B0S789 1-725).
T2 sequence: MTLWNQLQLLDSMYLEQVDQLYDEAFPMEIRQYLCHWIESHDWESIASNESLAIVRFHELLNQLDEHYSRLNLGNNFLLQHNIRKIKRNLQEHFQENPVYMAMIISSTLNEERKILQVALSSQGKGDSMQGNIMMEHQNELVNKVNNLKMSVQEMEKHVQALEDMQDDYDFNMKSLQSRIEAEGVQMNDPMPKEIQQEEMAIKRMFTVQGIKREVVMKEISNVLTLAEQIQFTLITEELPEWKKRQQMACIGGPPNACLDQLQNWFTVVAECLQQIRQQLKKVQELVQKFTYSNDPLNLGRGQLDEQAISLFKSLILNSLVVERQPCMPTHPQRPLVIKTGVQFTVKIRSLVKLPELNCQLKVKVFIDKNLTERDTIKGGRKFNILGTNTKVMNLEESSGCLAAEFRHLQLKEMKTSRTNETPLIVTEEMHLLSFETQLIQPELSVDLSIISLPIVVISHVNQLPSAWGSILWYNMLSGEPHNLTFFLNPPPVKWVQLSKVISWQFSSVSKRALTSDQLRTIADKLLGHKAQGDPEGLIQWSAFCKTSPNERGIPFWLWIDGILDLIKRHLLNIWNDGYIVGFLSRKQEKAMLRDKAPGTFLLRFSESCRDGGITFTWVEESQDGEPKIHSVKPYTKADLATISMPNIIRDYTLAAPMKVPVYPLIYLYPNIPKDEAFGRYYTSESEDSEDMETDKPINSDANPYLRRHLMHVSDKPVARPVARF
Described as above. To be noted: protein: recombinant; tags: His (pET-28a; Ni-NTA, anti-His); chain copies: 2; blunt.

Data set [3] has as its target T1, rStat1a. Briefly: competition; unlabeled competitor vs biotin P1 probe; little change; Beyotime GS009 EMSA/Gel-Shift binding buffer with poly(dI-dC), 25 C, 25 min preincubation then 30 min with 0.5 uM biotin probe (competitor stated as 0.5 uM), native 6% PAGE; salt and pH not stated. The conditions noted are these: protein: recombinant; tags: His (pET-28a; Ni-NTA, anti-His); chain copies: 2; blunt.

In data set [4] the target is T2, rStat1b. Described as above. To be noted: protein: recombinant; tags: His (pET-28a; Ni-NTA, anti-His); chain copies: 2; blunt.
Data set [5] addresses T1, rStat1a. Description: EMSA; poly(dI-dC); anti-His supershift; unlabeled probe competes; Beyotime GS009 EMSA/Gel-Shift binding buffer with poly(dI-dC), 25 C, 25 min preincubation then 30 min with 0.5 uM biotin probe (competitor stated as 0.5 uM), native 6% PAGE; salt and pH not stated. The conditions noted are these: protein: recombinant; tags: His (pET-28a; Ni-NTA, anti-His); chain copies: 2; label: biotin on both strands (5'); blunt.

The target of data set [6] is T2, rStat1b. The description is as above. To be noted: protein: recombinant; tags: His (pET-28a; Ni-NTA, anti-His); chain copies: 2; label: biotin on both strands (5'); blunt.

B1: P2 mutant probe (dsDNA)
DNA 1: TTCAATGCACTAGGCCTTCTC
DNA 2: GAGAAGGCCTAGTGCATTGAA
As for B1, the binding result in data set [1] and in data set [2] was “no binding” in each case.

B2: P1 mutant probe (dsDNA)
DNA 1: AGACCAGCCCGGGGCAACCAA
DNA 2: TTGGTTGCCCCGGGCTGGTCT
In the case of B2, the binding result in data set [3] and in data set [4] was “no binding” throughout.

B3: P2 GAS probe (dsDNA)
DNA 1: TTCAATTTACTAGAACTTCTC
DNA 2: GAGAAGTTCTAGTAAATTGAA
Regarding B3, the binding result in data set [5] and in data set [6] was “binds” in each case.

B4: P1 GAS probe (dsDNA)
DNA 1: AGACCATTCCGGGAAAACCAA
DNA 2: TTGGTTTTCCCGGAATGGTCT
For B4, the binding result in data set [5] and in data set [6] was “binds” each time.

The values are drawn from publication PMC7943762, “Bmp8a is an essential positive regulator of antiviral immunity in zebrafish”.
